This is an account of results in paper PMC10696660.

What is called stoichiometry N is the number of molecules, sites or subunits per partner or assembly.

This assay deals with AqpZ (UniProt P60844). The assay is described as follows: native MS.

“AqpZ (from UniProt P60844 1-231) (natural protein)” came in with a stoichiometry N of 4.
